Test results as given in publication PMC2734165, “The Immune System Strikes Back: Cellular Immune Responses against Indoleamine 2,3-dioxygenase” (PLoS ONE, 2009).

Columns and labels:
[1] = system: established murine cancers; settings: ref [17]; cited from earlier work
Text: The state of lymphopenia following high-dose chemotherapy appears to provide a window of enhanced responsiveness to immunotherapy. Additionally, certain chemotherapeutic drugs may assist in breaking immune tolerance by preferentially inhibition of Tregs, [47]. Nonetheless, chemotherapy alone is never sufficient to break tolerance to tumors probably because the original tolerogenic mechanisms rapidly restore tolerance following each cycle of chemotherapy. In principle, therefore, chemotherapy might provide an environment in which IDO-based immunotherapy could have a synergistic ...

[2] = system: breast cancer cell line CAMA-1; test: 51Cr-release assay, CAMA-1; format: cell-based; settings: IFN-γ 100 U/ml for 2 days
Procedure: (§1) Conventional ^51Cr-release assays for CTL-mediated cytotoxicity was carried out as described elsewhere. Target cells were T2-cells, in vitro generated autologous immature DC (iDC) and matured DC (mDC), in vitro generated allogeneic HLA-A2^+ iDC and mDC, autologous ex vivo isolated monocytes, T cells and B cells (isolated using CD14^+, CD3^+ or CD19^+ microbeads (MACS)), the natural killer target cell line K562, ex vivo enriched HLA-A2^+ AML-blasts (B and T cells were depleted from the bone marrow of AML patients using CD19^+ and CD3^+ microbeads (MACS)), the breast cancer cell lines CAMA-1 and MDA-MB-231, as well as the colon cancer cell lines HCT-116 and SW480 (all available at the American Type Culture Collection (ATCC)), and FM55M [27]. Lysis were blocked using the HLA specific mAb W6/32 (2 µg/100 µl). In some assays, target cells were treated with 100 U/ml IFN-γ for 2 days.
(§2) Figure 5 Functional capacity of IDO5-specific T cells to kill cancer cell lines treated with IFN-γ for up-regulation of IDO, or treated with IDO ShRNA for down-regulation of IDO. […] Intracellular IDO expression was given by a one-tailed two sampled t-test comparing MFIIDO (dark histograms) and MFIIsotype control (light histograms), where MFI is the Mean Fluorescence Intensity. […]

[3] = system: breast cancer cell line MDA-MB-231; test: 51Cr-release assay, MDA-MB-231; format: cell-based; settings: IFN-γ 100 U/ml for 2 days
Procedure: as §1, §2

[4] = system: autologous CD14^+ monocytes, CD3^+ T cells and CD19^+ B cells; test: 51Cr-release assay, autologous monocytes, T cells and B cells; format: cell-based; settings: CD19^+ B cells after IFN-γ treatment
Text: Target cells were T2-cells, in vitro generated autologous immature DC (iDC) and matured DC (mDC), in vitro generated allogeneic HLA-A2^+ iDC and mDC, autologous ex vivo isolated monocytes, T cells and B cells (isolated using CD14^+, CD3^+ or CD19^+ microbeads (MACS)), the natural killer target cell line K562, ex vivo enriched HLA-A2^+ AML-blasts (B and T cells were depleted from the bone marrow of AML patients using CD19^+ and CD3^+ microbeads (MACS)), the breast cancer cell lines CAMA-1 and MDA-MB-231, as well as the colon cancer cell lines HCT-116 and SW480 (all available at the American Type Culture Collection (ATCC)), and FM55M [27]. Lysis were blocked using the HLA specific mAb W6/32 (2 µg/100 µl) [28]. In some assays, target cells were treated with 100 U/ml IFN-γ for 2 days.
Next, we tested the ability of RBS35 to lyse autologous monoctyes, T cells and B cells. For this purpose, we isolated CD14^+ monocytes, CD3^+ T cells and CD19^+ B cells directly ex vivo from IDO^+ PBMC. The isolated cells were subsequently used as target cells in a ^51Cr-release assay.
All assays were performed in different E∶T ratios. […] ( c ), Lysis of autologous CD14^+ monocytes, CD3^+ T cells and CD19^+ B cells isolated directly ex vivo from IDO^+ PBMC, and lysis of autologous CD14^+ monocytes, CD3^+ T cells and CD19^+ B cells after IFN-γ treatment. […]

[5] = system: IDO in CAMA-1 and MDA-MB-231; test: Intracellular IDO staining, breast cancer cell lines; format: cell-based
Procedure: PBMC, DC, and cancer cells were examined for intracellular IDO expression using flow cytometry. After fixation and permeabilization (Cytofix/Cytoperm, BD), cells were stained with anti-IDO antibody (Millipore Corporation). For comparison, cells were stained with an isotype matched control (Millipore Corporation). After incubation, cells were washed twice with Perm/Washbuffer (BD) before staining with a FITC-labeled secondary antibody (DAKO). The samples were analyzed on BD FACS Aria, using DIVA software (BD Biosciences). Assuming normality, intracellular IDO expression was given by a one-tailed two sampled t-test comparing MFIIDO and MFIIsotype control, where MFI is the Mean Fluorescence Intensity. […]
Statistical analysis was performed on data on intracellular IDO staining. Assuming normality, intracellular IDO expression was given by a one-tailed two sampled t-test comparing MFIIDO and MFIIsotype control, where MFI is the Mean Fluorescence Intensity. […] HLA-A2 expression was determined using the same approach.
as §2

[6] = system: HLA-A2 on CAMA-1 and MDA-MB-231; test: HLA-A2 surface staining, breast cancer cell lines; format: cell-based
Procedure: Cancer cells were examined for HLA-A2 expression using flow cytometry. Cells were stained with a fluorochrome-coupled HLA-A2 mAb (BD Bioscience). For comparison, cells were stained with an isotype matched control. The samples were analyzed on BD FACS Aria, using DIVA software (BD Biosciences). Assuming normality, HLA-A2 expression was given by a one-tailed two sampled t-test comparing MFIHLA-A2 and MFIIsotype control, where MFI is the Mean Fluorescence Intensity. For p-values <0.05 (significance level) cells were defined HLA-A2^+. The fold of expression was defined as MFIHLA-A2/MFIIsotype control.
Statistical analysis was performed on data on intracellular IDO staining. Assuming normality, intracellular IDO expression was given by a one-tailed two sampled t-test comparing MFIIDO and MFIIsotype control, where MFI is the Mean Fluorescence Intensity. For p-values <0.05 (significance level) cells were defined IDO^+. […] HLA-A2 expression was determined using the same approach.
as §2

[7] = CAMA-1 and MDA-MB-231, IFN-γ 100 U/ml for 2 days

Row | Molecule | Synergy with chemotherapy drugs [1] | Effect on killing of CAMA-1 by RBS35 [2] | Effect on killing of MDA-MB-231 by RBS35 [3] | Effect of IFN-γ on killing of autologous immune cells by RBS35 [4] | Fold of IDO expression, MFIIDO/MFIIsotype control ([5]; CAMA-1 + IFN-γ treatment, p = 0.004, before treatment 2.3 (p = 0.020), representative of 3 experiments) | IDO expression after treatment [5, 7] | Fold of HLA-A2 expression (printed as MFIIDO/MFIHLA-A2) ([6]; CAMA-1 + IFN-γ treatment, p = 0.002, before treatment 43.7 (p = 0.004), representative of 3 experiments) | HLA-A2 expression after treatment [6, 7]
1 | Cn1cc(C[C@H](N)C(=O)O)c2ccccc21 [1-Methyl-Tryptophan] | work synergistically with different chemotherapy drugs in established murine cancers |  |  |  |  |  |  | 
2 | IFN-γ: IFN-γ, 100 U/ml for 2 days (protein, UniProt P01579 24-161, looked up) Interferon gamma: QDPYVKEAENLKKYFNAGHSDVADNGTLFLGILKNWKEESDRKIMQSQIVSFYFKLFKNFKDDQSIQKSVETIKEDMNVKFFNSNKKKRDDFEKLTNYSVTDLNVQRKAIHELIQVMAELSPAAKTGKRKRSQMLFRG |  | increased the killing by RBS35 of CAMA-1 | introduced killing of the MDA-MB-231 cells | introduced killing of the CD14^+ monocytes, but not of the T and B cells | 3.5 | increased the expression of IDO and HLA-A2 in both cell lines | 141.2 | increased the expression of IDO and HLA-A2 in both cell lines
